Here are results for one protein from publication PMC9984531, “Cryo-EM structure of human heptameric pannexin 2 channel” (Nature Communications, 2023).

The data set deals with the molecule itself. As to the kind of experiment: cryo-EM structure; single-particle cryo-EM of purified Panx2-NT (Superose 6 peak at 16.0 ml), 50 mM Tris pH 7.5, 150 mM NaCl, 0.02% GDN, ~10 mg/ml; C1 map without imposed symmetry, final refinement with C7 symmetry at ~3.4 Å.

B1: human pannexin 2 N-terminal domain (Panx2-NT, amino acids 1-410) (domain or fragment, UniProt Q96RD6-3 1-410, looked up)
chain: MHHLLEQSADMATALLAGEKLRELILPGAQDDKAGALAALLLQLKLELPFDRVVTIGTVLVPILLVTLVFTKNFAEEPIYCYTPHNFTRDQALYARGYCWTELRDALPGVDASLWPSLFEHKFLPYALLAFAAIMYVPALGWEFLASTRLTSELNFLLQEIDNCYHRAAEGRAPKIEKQIQSKGPGITEREKREIIENAEKEKSPEQNLFEKYLERRGRSNFLAKLYLARHVLILLLSAVPISYLCTYYATQKQNEFTCALGASPDGAAGAGPAVRVSCKLPSVQLQRIIAGVDIVLLCVMNLIILVNLIHLFIFRKSNFIFDKLHKVGIKTRRQWRRSQFCDINILAMFCNENRDHIKSLNRLDFITNESDLMYDNVVRQLLAALAQSNHDATPTVRDSGVQTVDPSAN
modifications: N-glycosylated on N86 (extra density observed near N86)
notes: Pannexin 2 (PANX2), H. sapiens, NCBI NP_443071.2, 677 residues in full; construct Panx2-NT holds amino acids 1-410, made to mimic the caspase-cleaved truncation; the model holds residues 41-184, 188-266, 273-373 and 377-388; also called C-terminal truncated Panx2; human N-terminal Panx2; source: HEK293F, transient transfection (PEI), purified (DDM solubilisation, anti-FLAG M2 agarose, Superose 6 …)
In the case of B1, the “stoichiometry N” value came out at 7.
